From publication PMC13534476, “The Arabidopsis SPFH protein HIR2 modulates receptor signaling and plasma membrane organization” (The EMBO Journal, 2026)
Several values for one entry are separate records, joined by “and”; a condition that tells them apart may be missing. Identical values can stand only once.

Target: the molecule itself
Assay: SDS-PAGE with immunoblot (denaturing); denatured samples (SDS loading buffer, 5 min 95 °C) of the extracts made for BN-PAGE

B1: HIR2-HA (natural protein, Arabidopsis thaliana, UniProt Q9SRH6 1-285, looked up)
chain: MGNLFCCVLVKQSDVAVKERFGKFQKVLNPGLQFVPWVIGDYVAGTLTLRLQQLDVQCETKTKDNVFVTVVASIQYRVLADKASDAFYRLSNPTTQIKAYVFDVIRACVPKLNLDDVFEQKNEIAKSVEEELDKAMTAYGYEILQTLIIDIEPDQQVKRAMNEINAAARMRVAASEKAEAEKIIQIKRAEGEAESKYLSGLGIARQRQAIVDGLRDSVLGFAGNVPGTSAKDVLDMVMMTQYFDTMRDIGATSKSSAVFIPHGPGAVSDVAAQIRNGLLQANNAS
notes: HIR2, Arabidopsis thaliana; also called HA-tagged HIR2; source: Nicotiana benthamiana leaves, transient expression, total protein extract
- stoichiometry N: 2 and 4 and 6
